We go through 1 substance from patent US20200407750A1.

Assay [1] concerns the target AAV9.AAQAA capsid mutant (adeno-associated virus 9 (AAV9), mutant). In words: cell-based or functional assay.
In assay [2] the target is AAV9.QQNAA capsid mutant (adeno-associated virus 9 (AAV9), mutant). Put plainly: cell-based or functional assay.
For assay [3], the target named is AAV9.RGHRE capsid mutant (adeno-associated virus 9 (AAV9), mutant). Put plainly: cell-based or functional assay.
Assay [4] addresses AAV9.RGNRQ capsid mutant (adeno-associated virus 9 (AAV9), mutant). In words: cell-based or functional assay.
The target in assay [5] is AAV9.SAQAA capsid mutant (adeno-associated virus 9 (AAV9), mutant). In words: cell-based or functional assay.
The target of assay [6] is AAV9.SAQAN capsid mutant (adeno-associated virus 9 (AAV9), mutant). In words: cell-based or functional assay.
Assay [7] addresses AAV9.SSNTA capsid mutant (adeno-associated virus 9 (AAV9), mutant). In words: cell-based or functional assay.
Assay [8] has as its target AAV9.TQAAA capsid mutant (adeno-associated virus 9 (AAV9), mutant). In words: cell-based or functional assay.
For assay [9], the target named is AAV9.WT capsid (AAV9 vector) (adeno-associated virus 9 (AAV9)). Put plainly: cell-based or functional assay.
Assay [10] has as its target AAV9.RGNRQ capsid mutant (adeno-associated virus 9 (AAV9), mutant). In words: capsid capture ELISA, as told in the discussion.
The target of assay [11] is AAV9.AAQAA capsid mutant (adeno-associated virus 9 (AAV9), mutant). Put plainly: capsid capture ELISA, EC50 from dose-response fit.
Assay [12] addresses AAV9.QQNAA capsid mutant (adeno-associated virus 9 (AAV9), mutant). Put plainly: capsid capture ELISA, EC50 from dose-response fit.
Assay [13] deals with AAV9.RGHRE capsid mutant (adeno-associated virus 9 (AAV9), mutant). Put plainly: capsid capture ELISA, EC50 from dose-response fit.
Assay [14] deals with AAV9.RGNRQ capsid mutant (adeno-associated virus 9 (AAV9), mutant). Put plainly: capsid capture ELISA, EC50 from dose-response fit.
The target of assay [15] is AAV9.SAQAA capsid mutant (adeno-associated virus 9 (AAV9), mutant). In words: capsid capture ELISA, EC50 from dose-response fit.
Assay [16] has as its target AAV9.SAQAN capsid mutant (adeno-associated virus 9 (AAV9), mutant). In words: capsid capture ELISA, EC50 from dose-response fit.
The target in assay [17] is AAV9.SSNTA capsid mutant (adeno-associated virus 9 (AAV9), mutant). In words: capsid capture ELISA, EC50 from dose-response fit.
In assay [18] the target is AAV9.TQAAA capsid mutant (adeno-associated virus 9 (AAV9), mutant). Put plainly: capsid capture ELISA, EC50 from dose-response fit.
Assay [19] addresses AAV9.WT capsid (AAV9 vector) (adeno-associated virus 9 (AAV9)). In words: capsid capture ELISA, EC50 from dose-response fit.

Turning to PAV9.1 monoclonal antibody, the Fold reduction NAb titer in assay [1] is 16 fold; in [2] it was 128 fold; in assay [3] it was > 2048 fold; in assay [4], 8 fold; in assay [5] it was 4 fold; in [6], 16 fold. In addition, the Fold reduction NAb titer was 512 fold in assay [7], 16 fold in assay [8] and 1 fold in assay [9]. For the same substance, in [3], the NAb titer of PAV9.1 (reciprocal dilution) was < 80. Besides, in assay [9], the effective NAb titer (NAb assay, transduction of HEK293 cells) (reciprocal dilution) turned out to be 164000. The same substance registered a fold reduction in binding (relative to WT.AAV9) in assay [10] of 50 fold. The Fold increase EC50 (relative to AAV9.WT) in assay [11] was 45 fold; in assay [12] it was 124 fold; in assay [13], 294 fold; in assay [14], 96 fold; in assay [15], 20 fold; in [16], 40 fold. Moreover, the values for the Fold increase EC50 (relative to AAV9.WT) in [17], in assay [18] and in assay [19] were 264 fold, 15 fold and 1 fold, respectively.
